Experimental data published in the supplement of paper PMC9112550, “Optimization of the antimicrobial peptide Bac7 by deep mutational scanning” (BMC Biology, 2022).

Test system: Escherichia coli TOP10
Assay: shrunken log2 fold change of peptide-encoding DNA abundance (4.5 h post-induction vs induction); higher = less antimicrobial activity (less host growth inhibition)
Settings: time post-induction: 4.5 h; library: site-saturation at positions 5, 18, 19, 20
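Further: peptides expressed intracellularly from a pBAD plasmid library in pooled LB shake-flask culture, induced with 0.3% L-arabinose, DNA abundance read by NGS, three biological replicates, DESeq2 with apeglm shrinkage.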

Sequence	shrunken log2 fold change
RRIRGRPPRLPRPRPRPPWTPRP	0.68
RRIRRRPPRLPRPRPRPKFLPRP	0.133
RRIRARPPRLPRPRPRPQCDPRP	0.0205
RRIRRRPPRLPRPRPRPIEWPRP	0.375
RRIRSRPPRLPRPRPRPSRAPRP	0.281
RRIRIRPPRLPRPRPRPSNSPRP	-1.13
RRIRKRPPRLPRPRPRPDVNPRP	0.139
RRIRCRPPRLPRPRPRPTEGPRP	0.284
RRIRSRPPRLPRPRPRPCKIPRP	-0.177
RRIRARPPRLPRPRPRPQPVPRP	0.292
RRIRMRPPRLPRPRPRPALAPRP	1.08
RRIRARPPRLPRPRPRPVGMPRP	0.376
RRIRVRPPRLPRPRPRPGLDPRP	0.0777
RRIRPRPPRLPRPRPRPPMIPRP	-0.425
RRIRFRPPRLPRPRPRPEYRPRP	-0.218
RRIRERPPRLPRPRPRPGCRPRP	0.0043
RRIRFRPPRLPRPRPRPAPGPRP	0.668
RRIRHRPPRLPRPRPRPTITPRP	-0.384
RRIRCRPPRLPRPRPRPFIPPRP	-0.976
RRIRWRPPRLPRPRPRPMQPPRP	0.185
RRIRCRPPRLPRPRPRPHPNPRP	-0.186
RRIRTRPPRLPRPRPRPNNIPRP	-0.695
RRIRHRPPRLPRPRPRPSWLPRP	-0.0847
RRIRVRPPRLPRPRPRPRMEPRP	0.413
RRIRWRPPRLPRPRPRPIDAPRP	0.0128

Sequence	shrunken log2 fold change
RRIRSRPPRLPRPRPRPGKGPRP	-0.0961
RRIRFRPPRLPRPRPRPKELPRP	-0.127
RRIRGRPPRLPRPRPRPENIPRP	0.204
RRIRRRPPRLPRPRPRPMIIPRP	-0.171
RRIRNRPPRLPRPRPRPPTVPRP	0.175
RRIRDRPPRLPRPRPRPCDHPRP	-0.0216
RRIRVRPPRLPRPRPRPTDKPRP	-0.0288
RRIRMRPPRLPRPRPRPCYPPRP	-0.352
RRIRSRPPRLPRPRPRPSSNPRP	-0.872
RRIRRRPPRLPRPRPRPDVQPRP	-0.0867
RRIRCRPPRLPRPRPRPPCRPRP	0.609
RRIRIRPPRLPRPRPRPEDNPRP	-0.138
RRIRCRPPRLPRPRPRPNGLPRP	-0.132
RRIRLRPPRLPRPRPRPENYPRP	-0.041
RRIRWRPPRLPRPRPRPEEWPRP	-0.0123
RRIRNRPPRLPRPRPRPKYVPRP	-0.00968
RRIRRRPPRLPRPRPRPTFRPRP	0.0132
RRIRVRPPRLPRPRPRPHQMPRP	-0.0715
RRIRYRPPRLPRPRPRPTGEPRP	-0.0166
RRIRMRPPRLPRPRPRPTEHPRP	0.443
RRIRERPPRLPRPRPRPMNPPRP	-0.488
RRIRIRPPRLPRPRPRPHCMPRP	-0.697
RRIRIRPPRLPRPRPRPLKNPRP	-0.202
RRIRTRPPRLPRPRPRPAFKPRP	0.143
RRIRHRPPRLPRPRPRPKPNPRP	0.225

Sequence	shrunken log2 fold change
RRIRRRPPRLPRPRPRPFNCPRP	-0.301
RRIRTRPPRLPRPRPRPNDKPRP	-0.605
RRIRLRPPRLPRPRPRPGCAPRP	0.444
RRIRWRPPRLPRPRPRPGHHPRP	0.0195
RRIRLRPPRLPRPRPRPLQGPRP	-0.0384
RRIRLRPPRLPRPRPRPVRPPRP	-0.0457
RRIRHRPPRLPRPRPRPCIEPRP	-0.00547
RRIRVRPPRLPRPRPRPQKYPRP	-0.783
RRIRPRPPRLPRPRPRPATCPRP	1.55
RRIRARPPRLPRPRPRPRTFPRP	0.287
RRIRQRPPRLPRPRPRPQIFPRP	-0.0511
RRIRERPPRLPRPRPRPDMPPRP	-0.447
RRIRPRPPRLPRPRPRPDWRPRP	0.321
RRIRARPPRLPRPRPRPIQGPRP	0.0518
RRIRVRPPRLPRPRPRPLFNPRP	-0.465
RRIRIRPPRLPRPRPRPDQDPRP	-0.162
RRIRRRPPRLPRPRPRPEKMPRP	0.296
RRIRQRPPRLPRPRPRPEPMPRP	0.0452
RRIRTRPPRLPRPRPRPTNAPRP	0.209
RRIRHRPPRLPRPRPRPRWLPRP	0.144
RRIRERPPRLPRPRPRPFFKPRP	-0.37
RRIRGRPPRLPRPRPRPRQAPRP	0.93
RRIRERPPRLPRPRPRPKDKPRP	-0.15
RRIRKRPPRLPRPRPRPSLDPRP	0.183
RRIRVRPPRLPRPRPRPFYQPRP	-0.537

Sequence	shrunken log2 fold change
RRIRGRPPRLPRPRPRPIECPRP	0.146
RRIRMRPPRLPRPRPRPMHYPRP	-0.221
RRIRERPPRLPRPRPRPHTVPRP	-0.346
RRIRCRPPRLPRPRPRPGRGPRP	1.18
RRIRVRPPRLPRPRPRPHTVPRP	-0.448
RRIRYRPPRLPRPRPRPFCRPRP	-0.228
RRIRVRPPRLPRPRPRPNMYPRP	0.0145
RRIRMRPPRLPRPRPRPQPCPRP	0.376
RRIRNRPPRLPRPRPRPCRMPRP	-0.195
RRIRGRPPRLPRPRPRPAVGPRP	1.77
RRIRWRPPRLPRPRPRPDFIPRP	-0.395
RRIRLRPPRLPRPRPRPYMAPRP	-0.608
RRIRDRPPRLPRPRPRPVVLPRP	0.268
RRIRMRPPRLPRPRPRPVNWPRP	0.223
RRIRTRPPRLPRPRPRPWFVPRP	-0.243
RRIRCRPPRLPRPRPRPKPMPRP	-0.00253
RRIRPRPPRLPRPRPRPAWAPRP	0.45
RRIRNRPPRLPRPRPRPPQFPRP	0.334
RRIRCRPPRLPRPRPRPQQWPRP	-0.0268
RRIRVRPPRLPRPRPRPLWFPRP	0.125
RRIRMRPPRLPRPRPRPEGAPRP	3.32
RRIRTRPPRLPRPRPRPKERPRP	-0.0679
RRIRGRPPRLPRPRPRPPGVPRP	0.931
RRIRDRPPRLPRPRPRPDVPPRP	0.221
RRIRCRPPRLPRPRPRPSDCPRP	-0.387

Sequence	shrunken log2 fold change
RRIRVRPPRLPRPRPRPESAPRP	0.522
RRIRGRPPRLPRPRPRPIYPPRP	0.119
RRIRGRPPRLPRPRPRPIYSPRP	-0.05
RRIRNRPPRLPRPRPRPIWYPRP	-0.0752
RRIRWRPPRLPRPRPRPARYPRP	-0.0422
RRIRPRPPRLPRPRPRPCWKPRP	-0.0855
RRIRYRPPRLPRPRPRPVCSPRP	-0.484
RRIRSRPPRLPRPRPRPNRPPRP	-0.0188
RRIRWRPPRLPRPRPRPWTLPRP	-0.0248
RRIRIRPPRLPRPRPRPSIYPRP	-0.925
RRIRCRPPRLPRPRPRPSLNPRP	-0.341
RRIRFRPPRLPRPRPRPAYTPRP	-0.876
RRIRHRPPRLPRPRPRPYIVPRP	-0.191
RRIRARPPRLPRPRPRPCHQPRP	-0.34
RRIRRRPPRLPRPRPRPPHLPRP	0.52
RRIRKRPPRLPRPRPRPCYDPRP	-0.0387
RRIRGRPPRLPRPRPRPCQNPRP	0.0697
RRIRIRPPRLPRPRPRPGHRPRP	0.0543
RRIRPRPPRLPRPRPRPWPRPRP	0.766
RRIRQRPPRLPRPRPRPYYWPRP	0.0316
RRIRTRPPRLPRPRPRPDMSPRP	-0.0305
RRIRQRPPRLPRPRPRPGATPRP	0.273
RRIRHRPPRLPRPRPRPSKEPRP	-0.0697
RRIRDRPPRLPRPRPRPAYEPRP	-0.0214
RRIRPRPPRLPRPRPRPRRKPRP	0.166
